# Data published in patent US20230054634A1 (INSTYTUT BIOLOGII DO WIADCZALNEJ IM MARCELEGO NENCKIEGO …, published 2023).
# Where no end group is shown, it is not given here. The star is where a group is joined. Biotin = O=C1N[C@H]2[C@H](CS[C@H]2CCCCC(=O)*)N1
# Tests used:
# [1] = target: T1, recombinant human GM-CSF protein, Myc-tagged/His-tagged (human, UniProt P04141 18-144); test: ELISA, GM-CSF coated, biotin-labelled peptide, anti-biotin detection
# T1 construct: also called Granulocyte Macrophage Colony Stimulating Factor; CSF2; not shown: Myc tag and His tag from the expression vector
# T1 sequence (P04141 18-144): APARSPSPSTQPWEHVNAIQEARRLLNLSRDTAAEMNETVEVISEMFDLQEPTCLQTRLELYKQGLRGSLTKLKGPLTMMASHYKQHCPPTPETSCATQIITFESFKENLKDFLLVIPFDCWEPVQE
# Procedure: (§1) Next, unbound proteins were washed out, then the wells were blocked with 5% BSA (bovine serum albumin) in saline and peptides labeled with N-terminal biotin (purchased from GenScript) were added. […] HRP catalyzes the conversion of chromogenic substrates into colored products. The amount of bound peptide was proportional to the amount of the colored product, and it was measured using a spectrophotometer.
# [2] = target: T1, recombinant human GM-CSF protein, …; test: ELISA, GM-CSF coated, biotin-labelled peptide
# Procedure: as §1
# (SEQ ID NO: 1). […] These peptides, labeled with a N-terminal biotin, were purchased from GenScript.
# [3] = target: T1, recombinant human GM-CSF protein, …; test: SPR (BIAcore 3000), GM-CSF immobilised, peptide injected
# [4] = target: T1, recombinant human GM-CSF protein, …; test: ELISA on GM-CSF, relative to G7
# [5] = target: T1, recombinant human GM-CSF protein, …; test: ELISA, GM-CSF coated
# Procedure: as §1
binder,measurement,setting,value
Biotin-NHEVEDEIIWEEFT [G25 peptide],binding result,[1],binds
Biotin-LSYLDFQ (also called central (LSYLDFQ); short variant of G7) [G7 central portion],binding result,[2],no binding
Biotin-IERFNPPSNVTVRC [G3 peptide],binding result,[3],binds
RWKQPRTYQKLSYL [G6 peptide],binding result,[3],binds
YQKLSYLDFQYQKDK [G7K15],Relative binding,[4],60
KQPRTYQKLSYLDFQYQLD (ELISA as for the biotin-labelled peptides; also called W2) [G7 variant (A16)],binding result,[5],binds
KYQKLSYLDFQYQLD (also called G7K-1 variant) [G7K-1],Relative binding,[4],95
VLGFLFKRFLRIQR [G21 peptide],binding result,[3],binds
Biotin-WSSWSEAIEFGSDD [G16 peptide],binding result,[3],binds
RFLRIQRLFPPVPQ [G22 peptide],binding result,[3],binds
Biotin-HSVKIRAADVRILN [G14 peptide],binding result,[1],binds
YQKLSYLDFAYQLD [G7 variant (A10)],binding result,[5],binds
YQKLSYLDFQAQLD (ELISA as for the biotin-labelled peptides) [G7 variant (A11)],binding result,[5],binds
YQKLSYLDFQKQLD [G7K11],Relative binding,[4],108
YKKLSYLDFQYQLD (also called G7 variant with lysine in position 2) [G7K2],Relative binding,[4],2
YQKLSYLDFQYQLA (ELISA as for the biotin-labelled peptides) [G7 variant (A14)],binding result,[5],binds
YQKLSYLDFQYQAD (ELISA as for the biotin-labelled peptides; also called Al3) [G7 variant (A13)],binding result,[5],binds
YQKLSYLDFQYALD (ELISA as for the biotin-labelled peptides; also called Al2) [G7 variant (A12)],binding result,[5],binds
YQKLSYLDFQYQKD [G7K13],Relative binding,[4],108
Biotin-ADVRILNWSSWSEA [G15 peptide],binding result,[3],binds
NTTHCLVRWKQPRT [G5 peptide],binding result,[3],binds
Biotin-DFQYQLD (also called C-terminal (DFQYQLD); short variant of G7) [G7 C-terminal],binding result,[2],no binding
Biotin-YQKLSYL (also called N-terminal (YQKLSYL); short variant of G7) [G7 N-terminal],binding result,[2],no binding
